The supplement of paper PMC9233669
This sample holds only a part of the variants without activity.

Legend:
biotinyl-Ile-oxazolone = experiment: self-aminoacylation, catalytic enhancement (BIO) (fold over background); higher = more active; k-Seq, kA / k0A0; sequences stand for … in GGGAAUGGAUCCACAUCUACGAAUUC…UUCACUGCAGACUUGACGAAGCUG
Outline: (§1)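 Working in 50 μL HEPES/NaCl/KCl/MgCl2/CaCl2 buffer with 5% acetonitrile at pH 6.9–7.0, mutagenized RNA pools (0.43 μM; 21-nt variable region) were reacted with 2–1250 μM of each biotinyl-aminoacyl-oxazolone for 90 minutes at room temperature. Streptavidin capture followed, with quantification by triplicate qPCR and Illumina sequencing. Catalytic enhancement is reported as median kA over the uncatalyzed rate, the low-activity peak of a bimodal Gaussian fit to the data.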

biotinyl-Trp-oxazolone = experiment: self-aminoacylation, catalytic enhancement (BWO) (fold over background); higher = more active; k-Seq, kA / k0A0; sequences stand for … in GGGAAUGGAUCCACAUCUACGAAUUC…UUCACUGCAGACUUGACGAAGCUG
Outline: as §1

biotinyl-Phe-oxazolone = experiment: self-aminoacylation, catalytic enhancement (BFO) (fold over background); higher = more active; k-Seq, kA / k0A0; sequences stand for … in GGGAAUGGAUCCACAUCUACGAAUUC…UUCACUGCAGACUUGACGAAGCUG
Outline: as §1

biotinyl-Val-oxazolone = experiment: self-aminoacylation, catalytic enhancement (BVO) (fold over background); higher = more active; k-Seq, kA / k0A0; sequences stand for … in GGGAAUGGAUCCACAUCUACGAAUUC…UUCACUGCAGACUUGACGAAGCUG
Outline: as §1

biotinyl-Leu-oxazolone = experiment: self-aminoacylation, catalytic enhancement (BLO) (fold over background); higher = more active; k-Seq, kA / k0A0; sequences stand for … in GGGAAUGGAUCCACAUCUACGAAUUC…UUCACUGCAGACUUGACGAAGCUG
Outline: as §1

biotinyl-Met-oxazolone = experiment: self-aminoacylation, catalytic enhancement (BMO) (fold over background); higher = more active; k-Seq, kA / k0A0; sequences stand for … in GGGAAUGGAUCCACAUCUACGAAUUC…UUCACUGCAGACUUGACGAAGCUG
Outline: as §1

Sequence	self-aminoacylation (biotinyl-Ile-oxazolone)	self-aminoacylation (biotinyl-Trp-oxazolone)	self-aminoacylation (biotinyl-Phe-oxazolone)	self-aminoacylation (biotinyl-Val-oxazolone)	self-aminoacylation (biotinyl-Leu-oxazolone)	self-aminoacylation (biotinyl-Met-oxazolone)
AUUACGCCGGUCAUCGAGUGA [Fam2.1 aminoacylation ribozyme variant]	3.94	8.28	81.9	4.89	7.93	7.36
CCACACUUCGAGCAAUCGCUC [Fam1B.1 aminoacylation ribozyme variant]	1.98	2.71	5.11	2.62	1.71	2.13
CCACACUUCAAGCAUUCGGUC [Fam1B.1 aminoacylation ribozyme variant]	1.12	0.943	0.969	1.27	0.899	0.887
AAGUUAGCUAAUAUUCGCAAG [Fam3.1 aminoacylation ribozyme variant]	1.78	1.59	2.26	1.39	1.33	1.43
CCACACUUCAAGCUAUCGUUC [Fam1B.1 aminoacylation ribozyme variant]	0.677	0.521	0.96	0.908	0.574	0.542
AUUACCCUAGUCGUCGAGUGA [Fam2.1 aminoacylation ribozyme variant]	0.866	0.759	1.04	0.97	0.845	0.893
CCACACGUUAAGCAAUCGGUC [Fam1B.1 aminoacylation ribozyme variant]	1.09	0.931	1.05	1.15	0.93	0.992
AUGUUUGCUAAUAGACGCAAG [Fam3.1 aminoacylation ribozyme variant]	0.691	0.508	0.828	0.736	0.564	0.611
CUACUUCAAACAAUAGUUCUG [Fam1A.1 aminoacylation ribozyme variant]	0.624	0.325	0.553	0.511	0.532	0.53
CUAGUUCAAACAAUAGGUCUG [Fam1A.1 aminoacylation ribozyme variant]	1.04	0.721	0.923	0.952	1.09	0.949
ACGUUUGCUAAUAGUCGCAAU [Fam3.1 aminoacylation ribozyme variant]	1.66	1.53	2.06	1.33	1.51	1.45
AUUCACCUAGGUCAUUGGCUG [Fam2.2 aminoacylation ribozyme variant]	1.21	0.756	3.54	1.4	1.33	1.32
AUUACCCUAGUGAUCGAGUGA [Fam2.1 aminoacylation ribozyme variant]	1.76	3.1	7.82	1.86	2.72	3.31
CCACACUUCAAGCAUCCGGUC [Fam1B.1 aminoacylation ribozyme variant]	1.03	1.11	0.999	1.38	0.817	0.859
CUACUACAAAAAAUCGGUCUG [Fam1A.1 aminoacylation ribozyme variant]	0.774	0.762	0.76	0.765	0.678	0.857
AUUACCCUGGUCAUCGCGUAA [Fam2.1 aminoacylation ribozyme variant]	2.73	5.11	28.4	3.48	2.97	4.04
AAGAUUGGUAAUAGUCGCAAG [Fam3.1 aminoacylation ribozyme variant]	2.04	2.54	1.65	1.59	2.02	1.75
AUUCACCUAGAUCAUCGUGUG [Fam2.2 aminoacylation ribozyme variant]	0.956	1.06	1.49	0.999	1.38	1.36
CCACACUUCAAGCAUUCGGGC [Fam1B.1 aminoacylation ribozyme variant]	2.54	2.99	1.51	2.83	1.79	2.37
AUUACCCGGGUCAUCGAGUGU [Fam2.1 aminoacylation ribozyme variant]	2.33	3.42	10.8	2.11	3.19	3.48
AUUCACUUAGGUCACCGGGUG [Fam2.2 aminoacylation ribozyme variant]	3.47	5.19	28.2	3.33	5.15	4.86
AUUCACGUAGAUCAUCGGGUG [Fam2.2 aminoacylation ribozyme variant]	4.08	4.96	29.6	3.9	5.42	5.1
CAACACUUCAAGCAAUCGGUC [Fam1B.1 aminoacylation ribozyme variant]	1.13	20.1	43.1	1.27	1.55	1.11
AUUCACCUUGGUCAUCGGGUG [Fam2.2 aminoacylation ribozyme variant]	4.71	7.43	55.7	4.97	9.96	7.9
AUUCCACUGGUCAUCGAGUGA [Fam2.1 aminoacylation ribozyme variant]	3.72	7.09	28.1	3.82	6.67	5.86
